T1: FcγRIIa R (FcγRIIa, allotype R, Arg at position 131), extracellular domain with C-terminal His tag (human, UniProt P12318 34-217)
T1 construct: extracellular domain; soluble receptor used as Biacore analyte; also called 2aR; FcgRIIa R
T1 sequence (looked up): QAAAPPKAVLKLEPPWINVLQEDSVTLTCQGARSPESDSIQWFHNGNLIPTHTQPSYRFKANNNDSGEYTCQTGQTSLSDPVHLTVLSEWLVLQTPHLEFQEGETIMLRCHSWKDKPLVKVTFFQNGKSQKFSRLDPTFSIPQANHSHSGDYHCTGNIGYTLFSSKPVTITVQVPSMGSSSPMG

T2: FcγRIIb, extracellular domain with C-terminal His tag (human, UniProt P31994 43-217)
T2 construct: extracellular domain; soluble receptor used as Biacore analyte; also called 2b; FcgRIIb
T2 sequence (looked up): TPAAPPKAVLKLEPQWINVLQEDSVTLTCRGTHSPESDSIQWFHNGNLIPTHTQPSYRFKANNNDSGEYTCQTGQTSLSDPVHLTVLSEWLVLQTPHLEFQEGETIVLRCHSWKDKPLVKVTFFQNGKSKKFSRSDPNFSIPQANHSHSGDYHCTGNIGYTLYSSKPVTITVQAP

B1: heterodimerized antibody GpH7-A5/GpH7-B3 variant D270_05P/GpL16-k0 (antibody, human IgG1, kappa)
heavy 1: not shown
heavy 2: not shown
light: DIVMTQSPLSLPVTPGEPASISCQASESLVHSNRNTYLHWYLQKPGQSPQLLIYKVSNRFSGVPDRFSGSGSGTDFTLKISRVEAEDVGVYYCSQNTHVPPTFGQGTKVEIERTVAAPSVFIFPPSDEQLKSGTASVVCLLNNFYPREAKVQWKVDNALQSGNSQESVTEQDSKDSTYSLSSTLTLSKADYEKHKVYACEVTHQGLSSPVTKSFNRGEC
notes: He Ab: anti-glypican-3 IgG1, alteration in one H chain only; also called He Ab
B2: heterodimerized antibody GpH7-A5/GpH7-B3 variant K326_08L/GpL16-k0 (antibody, human IgG1, kappa)
heavy 1: not shown
heavy 2: not shown
light: B1 light
notes: as for B1
B3: heterodimerized antibody GpH7-A5/GpH7-B3 variant N325_08L/GpL16-k0 (antibody, human IgG1, kappa)
heavy 1: not shown
heavy 2: not shown
light: B1 light
notes: as for B1
B4: heterodimerized antibody GpH7-A5/GpH7-B3 variant S267_02A/GpL16-k0 (antibody, human IgG1, kappa)
heavy 1: not shown
heavy 2: not shown
light: B1 light
notes: as for B1
B5: heterodimerized antibody GpH7-A5/GpH7-B3 variant H268_09D/GpL16-k0 (antibody, human IgG1, kappa)
heavy 1: not shown
heavy 2: not shown
light: B1 light
notes: as for B1
B6: heterodimerized antibody GpH7-A5/GpH7-B3 variant L328_07I/GpL16-k0 (antibody, human IgG1, kappa)
heavy 1: not shown
heavy 2: not shown
light: B1 light
notes: as for B1
B7: heterodimerized antibody GpH7-A5/GpH7-B3 variant S239_10E/GpL16-k0 (antibody, human IgG1, kappa)
heavy 1: not shown
heavy 2: not shown
light: B1 light
notes: as for B1
B8: heterodimerized antibody GpH7-A5/GpH7-B3 variant K326_09D/GpL16-k0 (antibody, human IgG1, kappa)
heavy 1: not shown
heavy 2: not shown
light: B1 light
notes: as for B1
B9: heterodimerized antibody GpH7-A5/GpH7-B3 variant P238_08L/GpL16-k0 (antibody, human IgG1, kappa)
heavy 1: not shown
heavy 2: not shown
light: B1 light
notes: as for B1
B10: heterodimerized antibody GpH7-A5/GpH7-B3 variant G237_20W/GpL16-k0 (antibody, human IgG1, kappa)
heavy 1: not shown
heavy 2: not shown
light: B1 light
notes: as for B1
B11: heterodimerized antibody GpH7-A5/GpH7-B3 variant K326_07I/GpL16-k0 (antibody, human IgG1, kappa)
heavy 1: not shown
heavy 2: not shown
light: B1 light
notes: as for B1
B12: heterodimerized antibody GpH7-A5/GpH7-B3 variant S239_09D/GpL16-k0 (antibody, human IgG1, kappa)
heavy 1: not shown
heavy 2: not shown
light: B1 light
notes: as for B1
B13: heterodimerized antibody GpH7-A5/GpH7-B3 variant L328_10E/GpL16-k0 (antibody, human IgG1, kappa)
heavy 1: not shown
heavy 2: not shown
light: B1 light
notes: as for B1
B14: heterodimerized antibody GpH7-A5/GpH7-B3 variant P238_15Y/GpL16-k0 (antibody, human IgG1, kappa)
heavy 1: not shown
heavy 2: not shown
light: B1 light
notes: as for B1
B15: heterodimerized antibody GpH7-A5/GpH7-B3 variant H268_10E/GpL16-k0 (antibody, human IgG1, kappa)
heavy 1: not shown
heavy 2: not shown
light: B1 light
notes: as for B1
B16: heterodimerized antibody GpH7-A5/GpH7-B3 variant H268_02A/GpL16-k0 (antibody, human IgG1, kappa)
heavy 1: not shown
heavy 2: not shown
light: B1 light
notes: as for B1
B17: heterodimerized antibody GpH7-A5/GpH7-B3 variant L328_09D/GpL16-k0 (antibody, human IgG1, kappa)
heavy 1: not shown
heavy 2: not shown
light: B1 light
notes: as for B1
B18: heterodimerized antibody GpH7-A5/GpH7-B3 variant P238_09D/GpL16-k0 (antibody, human IgG1, kappa)
heavy 1: not shown
heavy 2: not shown
light: B1 light
notes: as for B1
B19: heterodimerized antibody GpH7-A5/GpH7-B3 variant N325_07I/GpL16-k0 (antibody, human IgG1, kappa)
heavy 1: not shown
heavy 2: not shown
light: B1 light
notes: as for B1
B20: heterodimerized antibody GpH7-A5/GpH7-B3 variant K326_10E/GpL16-k0 (antibody, human IgG1, kappa)
heavy 1: not shown
heavy 2: not shown
light: B1 light
notes: as for B1
B21: heterodimerized antibody GpH7-A5/GpH7-B3 variant N325_20W/GpL16-k0 (antibody, human IgG1, kappa)
heavy 1: not shown
heavy 2: not shown
light: B1 light
notes: as for B1
B22: heterodimerized antibody GpH7-A5/GpH7-B3 variant N325_06M/GpL16-k0 (antibody, human IgG1, kappa)
heavy 1: not shown
heavy 2: not shown
light: B1 light
notes: as for B1
B23: heterodimerized antibody GpH7-A5/GpH7-B3 variant G237_09D/GpL16-k0 (antibody, human IgG1, kappa)
heavy 1: not shown
heavy 2: not shown
light: B1 light
notes: as for B1
B24: heterodimerized antibody GpH7-A5/GpH7-B3 variant H268_13S/GpL16-k0 (antibody, human IgG1, kappa)
heavy 1: not shown
heavy 2: not shown
light: B1 light
notes: as for B1
B25: heterodimerized antibody GpH7-A5/GpH7-B3 variant L328_04F/GpL16-k0 (antibody, human IgG1, kappa)
heavy 1: not shown
heavy 2: not shown
light: B1 light
notes: as for B1
B26: heterodimerized antibody GpH7-A5/GpH7-B3 variant P238_10E/GpL16-k0 (antibody, human IgG1, kappa)
heavy 1: not shown
heavy 2: not shown
light: B1 light
notes: as for B1
B27: heterodimerized antibody GpH7-A5/GpH7-B3 variant P238_04F/GpL16-k0 (antibody, human IgG1, kappa)
heavy 1: not shown
heavy 2: not shown
light: B1 light
notes: as for B1
B28: heterodimerized antibody GpH7-A5/GpH7-B3 variant G236_09D/GpL16-k0 (antibody, human IgG1, kappa)
heavy 1: not shown
heavy 2: not shown
light: B1 light
notes: as for B1
B29: heterodimerized antibody GpH7-A5/GpH7-B3 variant P271_01G/GpL16-k0 (antibody, human IgG1, kappa)
heavy 1: not shown
heavy 2: not shown
light: B1 light
notes: as for B1

target: T1, FcγRIIa R (FcγRIIa, allotype R, Arg at …); test: Biacore SPR; He/Con_2aR divided by He/Con_2b (FcγRIIb)
Description: (§1) The heterodimerized antibodies He Abs in which one of the H chains was introduced with an alteration were assayed for their binding activities to each activating FcγR and inhibitory FcγR according to the method described in Example 4. […] The activating FcγRs in FIGS. 26, 27, 28, and 29 are FcγRIa, FcγRIIa (R), FcγRIIa (H), and FcγRIIIa, respectively.
(§2) Analysis of interaction between objective antibody and the FcγR was carried out using Biacore T100 (GE Healthcare). HBS-EP+ (GE Healthcare) was used as the running buffer, and the measurement temperature was set to 25° C. Chips produced by immobilizing the antigen peptide by the amine coupling method to a Series S Sencor Chip CM5 (GE Healthcare), or alternatively, chips produced by allowing preliminarily biotinylated antigen peptides to interact with and immobilize onto a Series S Sensor Chip SA (certified) (GE Healthcare) were used. Antibodies of interest were captured onto an antigen peptide-immobilized chip, and allowed to interact to each FcγR diluted with running buffer. To regenerate and repeatedly use the chip, the antibodies captured on the chip were washed off by reacting 10 mM glycine-HCl, pH 1.5.

IIaR/IIb (He_2aR/2b) | Binder
0.54 | B1
0.77 | B2
0.73 | B3
0.64 | B4
0.62 | B5
0.78 | B6
0.75 | B7
0.77 | B8
0.68 | B9
0.71 | B10
0.74 | B11
0.66 | B12
0.61 | B13
0.72 | B14
0.64 | B15
0.8 | B16
0.6 | B17
0.67 | B18
0.78 | B19
0.74 | B20
0.79 | B21
0.7 | B22
0.7 | B23
0.8 | B24
0.63 | B25
0.65 | B26
0.56 | B27
0.64 | B28
0.75 | B29

target: T1, FcγRIIa R (FcγRIIa, allotype R, Arg at …); test: Biacore SPR; binding relative to GpH7-A5/GpH7-B3/GpL16-k0 (=100)
Description: as §1, §2

He/Con_2aR (IIaR binding) | Binder
7.5 % of control | B1
137 % of control | B2
144 % of control | B3
155 % of control | B4
149 % of control | B5
124 % of control | B6
135 % of control | B7
148 % of control | B8
140 % of control | B9
138 % of control | B10
147 % of control | B11
137 % of control | B12
105 % of control | B13
156 % of control | B14
148 % of control | B15
133 % of control | B16
119 % of control | B17
148 % of control | B18
133 % of control | B19
148 % of control | B20
134 % of control | B21
152 % of control | B22
156 % of control | B23
127 % of control | B24
138 % of control | B25
151 % of control | B26
174 % of control | B27
106 % of control | B28
144 % of control | B29

target: T2, FcγRIIb, extracellular domain with …; test: as above
Description: as §1, §2

He/Con_2b (IIb binding) | Binder
13.9 % of control | B1
177 % of control | B2
197 % of control | B3
243 % of control | B4
239 % of control | B5
160 % of control | B6
181 % of control | B7
193 % of control | B8
204 % of control | B9
193 % of control | B10
199 % of control | B11
206 % of control | B12
172 % of control | B13
218 % of control | B14
230 % of control | B15
167 % of control | B16
199 % of control | B17
221 % of control | B18
171 % of control | B19
200 % of control | B20
169 % of control | B21
217 % of control | B22
223 % of control | B23
160 % of control | B24
219 % of control | B25
232 % of control | B26
312 % of control | B27
167 % of control | B28
193 % of control | B29
